Laboratory results from patent US20050048060A1, “Immunoconjugates” (priority 2002, published 2005).

Tests used:
LS 174T xenografts = assay: Anti-tumor effect of the prodrug therapy in nude mice with LS 174T xenografts; format: in vivo; conditions: conjugate 1 mg/kg i.v.
Description: FIG. 5: Therapeutic effect of cAb::βL/CCM combinations in nude mice with LS 174T xenografts. Conjugates (1 mg/kg) were injected i.v. on days indicated by the arrows, and CCM was administered 24 hours later. The therapeutic effects were compared to those of PDM at the MTD.
The anti-tumor effect of giving cAb-CEA::βL conjugate (1 mg/kg body weight) followed 24 hours later by escalating doses of CCM (100, 150, 200 mg/kg) are shown in FIG. 5. […] Therapeutic efficiency was dose-dependent.
Groups of five female athymic nude mice were injected subcutaneously with 2×10^6 LS 174T tumor cells. Ten days later when the tumors reached a size of about 100 mm^3, 1 mg/kg bodyweight of βL conjugates was injected i.v., followed 24 hours later by the prodrug CCM. Treatment with cAb-βL+CCM was carried out on a weekly schedule for a total of three rounds. The animals were monitored twice a week for general health, weight and tumor growth and compared to control groups receiving no treatment. Tumor volumes were calculated using the formula (longest length×perpendicular width^2)/2.

LS 174T tumor xenografts = assay: Conjugate localization (125I labeled conjugate biodistribution) in nude mice bearing LS 174T tumor xenografts; conditions: mouse, in vivo, iv, 1 mg/kg
Description: FIG. 4: Pharmacokinetics of cAb-CEA5::βL and the nonbinding control cAb-Lys3::βL in nude mice (three animals/group). βL conjugate levels in subcutaneous LS 174T colon carcinoma tumors and in normal tissues are shown at 6 hours, 24 hours and 48 hours post-administration. cAb-Lys3::βL served as nonbinding control.
Studies were undertaken in nude mice to establish the extent of cAb-CEA5::β-lactamase conjugate localization in LS 174T tumor xenografts. ^125I labeled cAb-CEA5::β-lactamase (4,728,481 cpm/μg conjugate) or cAb-Lys3::β-lactamase conjugate (2,691,621 cpm/μg conjugate) were injected i.v. (1 mg/kg) into mice (3 animals/group) that had subcutaneous LS 174T carcinoma tumors of about 0.5-1 cm diameter. The amount of radioactivity in the tumors, blood, and several other tissues was determined 6 hours, 24 hours and 48 hours later (FIG. 4). […] In order to see whether the radioactivity measured originated from intact conjugate molecules or degraded material, the enzymatic activity of β-lactamase in targeted tumor, liver and kidney tissue using nitrocefin was assessed. […]
The cAb-CEA::βL conjugate was radioiodinated with carrier-free ^125I using the IODOGEN reagent, following the manufacturer's (Pierce, Rockford, Ill., US) recommended method. […] The tumor, a sample of blood, and a range of other tissues were removed, weighed, and counted in a gamma counter.

[1] = design: species or system nude mice
Description: Studies were undertaken in nude mice to establish the extent of cAb-CEA5::β-lactamase conjugate localization in LS 174T tumor xenografts. ^125I labeled cAb-CEA5::β-lactamase (4,728,481 cpm/μg conjugate) or cAb-Lys3::β-lactamase conjugate (2,691,621 cpm/μg conjugate) were injected i.v. (1 mg/kg) into mice (3 animals/group) that had subcutaneous LS 174T carcinoma tumors of about 0.5-1 cm diameter. The amount of radioactivity in the tumors, blood, and several other tissues was determined 6 hours, 24 hours and 48 hours later (FIG. 4). […] A rather high accumulation of both cAb-CEA5::βL and cAb-Lys3::βL conjugates in the kidneys (0.41-0.53% ID/g tissue) was also noticed. In order to see whether the radioactivity measured originated from intact conjugate molecules or degraded material, the enzymatic activity of β-lactamase in targeted tumor, liver and kidney tissue using nitrocefin was assessed. […] The blood and normal tissue levels were still high at this time point and, thus, tumor/normal tissue ratios were low. After 24 hours, although the amounts of cAb-CEA::βL conjugate in the tumors had fallen to approximately 1% injected dose/g tumor, the blood and normal tissue levels had fallen more rapidly and, consequently, tumor/normal tissue ratios were in the 10-50 fold range, except for the kidneys where a high amount of radioactivity could still be measured.

[2] = system: LS 174T human adenocarcinoma cells; assay: In vitro cytotoxicity assay, [3H] thymidine incorporation, conjugate + CCM prodrug; conditions: cells blocked with unconjugated cAb-CEA5 0.1 mg/ml before conjugate

B1: cAb-CEA5-βL (protein)
chain: QVQLVESGGGSVQAGGSLRLSCAASGDTYGSYWMGWFRQAPGKEREGVAAINRGGGYTVYADSVKGRFTISRDTAKNTVYLQMNSLRPDDTADYYCAASGVLGGLHEDWFNYWGQGTQVTVSSAHHSEDPSSKAPKAPMGTPVSEKQLAEVVANTITPLMKAQSVPGMAVAVIYQGKPHYYTFGKADIAANKPVTPQTLFELGSISKTFTGVLGGDAIARGEISLDDAVTRYWPQLTGKQWQGIRMLDLATYTAGGLPLQVPDEVTDNASLLRFYQNWQPQWKPGTTRLYANASIGLFGALAVKPSGMPYEQAMTTRVLKPLKLDHTWINVPKAEEAHYAWGYRDGKAVRVSPGMLDAQAYGVKTNVQDMANWVMANMAPENVADASLKQGIALAQSRYWRIGSMYQGLGWEMLNWPVEANTVVEGSDSKVALAPLPVAEVNPPAPPVKASWVHKTGSTGGFGSYVAFIPEKQIGIVMLANTSYPNPARVEAAYHILEALQHHHHHH
anti-tumor activity at 200 mg CCM/kg/injection (LS 174T xenografts; 24 hours later CCM 200 mg/kg/injection): Significant anti-tumor activity including partial regression of the tumors | anti-tumor effect of the prodrug therapy combination (LS 174T xenografts; 24 hours later CCM 100, 150, 200 mg/kg, weekly, three rounds, vs non-treated or cAb-Lys3::βL + CCM): significant anti-tumor effect | amount of conjugate in the tumors (LS 174T tumor xenografts): approximately 1 % injected dose/g tumor | β-lactamase enzymatic activity in excised tumor tissue [1]: enzymatic activity was intact | β-lactamase enzymatic activity in kidney tissue [1]: no activity could be measured | β-lactamase enzymatic activity in liver tissue [1]: no activity could be measured | prodrug CCM activation on cells saturated with unconjugated cAb-CEA5 [2]: activated CCM at marginal levels
